Measurements published in patent US20180327503A1 (RINAT NEUROSCIENCE, published 2018).
Substitutions are numbered along the chain they refer to.

T1: human IL-7R on human peripheral blood mononuclear cells (CD4+ gated) (human, UniProt P16871 21-459)
T1 sequence (looked up): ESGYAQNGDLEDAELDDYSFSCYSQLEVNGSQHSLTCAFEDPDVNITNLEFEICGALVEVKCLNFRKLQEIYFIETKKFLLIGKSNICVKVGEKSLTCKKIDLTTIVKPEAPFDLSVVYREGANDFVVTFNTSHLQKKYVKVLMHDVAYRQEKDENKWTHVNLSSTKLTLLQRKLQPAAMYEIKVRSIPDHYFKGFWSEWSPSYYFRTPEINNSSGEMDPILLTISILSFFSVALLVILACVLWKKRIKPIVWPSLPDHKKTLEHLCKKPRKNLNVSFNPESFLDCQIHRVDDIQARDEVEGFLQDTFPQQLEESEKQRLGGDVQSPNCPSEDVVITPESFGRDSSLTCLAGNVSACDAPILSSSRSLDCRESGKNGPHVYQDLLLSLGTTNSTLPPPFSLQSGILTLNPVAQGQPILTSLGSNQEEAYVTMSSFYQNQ

T2: Human IL-7R-hFc antigen (R&D systems) (human, UniProt P16871 21-239)
T2 construct: Bought from R&D Systems; not shown: human Fc (hFc) of the bought fusion
T2 sequence (looked up): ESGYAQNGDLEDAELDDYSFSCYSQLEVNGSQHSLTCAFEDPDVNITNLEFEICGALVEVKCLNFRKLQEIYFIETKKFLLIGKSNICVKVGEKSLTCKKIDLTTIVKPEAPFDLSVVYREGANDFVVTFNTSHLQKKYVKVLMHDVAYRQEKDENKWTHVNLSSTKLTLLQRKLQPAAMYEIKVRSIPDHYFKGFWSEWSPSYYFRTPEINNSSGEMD

B1: P2D2 (antagonist IL-7R fully human monoclonal antibody, format not stated) (antibody, V domains shown)
VH: QVNLRESGGGLVKPGGSLRLSCAASGFTFDDSVMHWVRQAPGKGLEWLSLVGWDGFFTYYADSVKGRFTISRDNTKNLLYLQMNSLRAEDTAVYYCARQGDYVFNNWGQGTLVTVSS
VL: NFMLTQPHSVSGSPGKTVTISCTRSSGSIDSSYVQWYQQRPGNSPTTVIYEDDQRPSGVPDRFSGSIDSSSNSASLTISGLVTEDEADYYCMQYDSSHLVFGGGTKLTVLC
B2: P2E11 (antagonist IL-7R fully human monoclonal antibody, format not stated) (antibody, V domains shown)
VH: B1 VH with V103M, F104G, N105D, N106Y
VL: B1 VL with M92Q, Q93S, S96F, S97H
B3: P4B3 Fab (Fab, V domains shown)
VH: QVTLKESGGGLVQPGGSLRLSCAASGFTFSNYGMHWVRQAPGKGLEWVSAISGSGGSTYYADSVKGRFTISRDNSKNTVYLQMNSLRDEDTAVYYCARDISGGGMDVWGQGTTVTVSS
VL: NFMLTQPHSVSESPGKTVTISCTGSSGRIASSYVQWYQQRPGSAPTTVIYEDNQRPSGVPDRFSGSIDSSSNSASLTISGLKTEDEADYYCQSYASSSLWVFGGGTQLTVLS
B4: HAL403a Fab (Fab, V domains shown)
VH: B1 VH with V103M, F104G
VL: B1 VL with M92Q, Q93S, S96F, S97H
B5: C2M3 (hIgG1) (antibody, V domains shown)
VH: B1 VH with Q1E, N3Q, R5V, L48V, T75A, L78S, V103M, F104G
VL: NFMLTQPHSVSESPGKTVTISCTRSSGSIDSSYVQWYQQRPGSSPTTVIYEDDQRPSGVPDRFSGSIDSSSNSASLTISGLKTEDEADYYCMQYDFHHLVFGGGTKLTVL
notes: Only variable domains are tied to C2M3
B6: C2M3 (hIgG2ΔA) (antibody, V domains shown)
VH: B1 VH with Q1E, N3Q, R5V, L48V, T75A, L78S, V103M, F104G
VL: B5 VL
notes: the footnote is printed with **); Only variable domains are tied to C2M3
B7: P3A9 Fab (Fab, V domains shown)
VH: B1 VH with F56S, F57A, N105D, N106Y
VL: B1 VL with M92Q, Q93S
B8: HAL403b Fab (Fab, V domains shown)
VH: B1 VH with V103M, F104G
VL: B1 VL with S96F, S97H
B9: C1GM Fab (Fab, V domains shown)
VH: B1 VH with Q1E, N3Q, R5V, L48V, T75A, L78S, V103M, F104G
VL: B5 VL with M92Q, Q93S
B10: P2E11 Fab (Fab, V domains shown)
VH: B1 VH with V103M, F104G, N105D, N106Y
VL: B1 VL with M92Q, Q93S, S96F, S97H
B11: P2D2 Fab (Fab, V domains shown)
VH: B1 VH
VL: B1 VL
B12: C1GM (hIgG1) (antibody)
heavy: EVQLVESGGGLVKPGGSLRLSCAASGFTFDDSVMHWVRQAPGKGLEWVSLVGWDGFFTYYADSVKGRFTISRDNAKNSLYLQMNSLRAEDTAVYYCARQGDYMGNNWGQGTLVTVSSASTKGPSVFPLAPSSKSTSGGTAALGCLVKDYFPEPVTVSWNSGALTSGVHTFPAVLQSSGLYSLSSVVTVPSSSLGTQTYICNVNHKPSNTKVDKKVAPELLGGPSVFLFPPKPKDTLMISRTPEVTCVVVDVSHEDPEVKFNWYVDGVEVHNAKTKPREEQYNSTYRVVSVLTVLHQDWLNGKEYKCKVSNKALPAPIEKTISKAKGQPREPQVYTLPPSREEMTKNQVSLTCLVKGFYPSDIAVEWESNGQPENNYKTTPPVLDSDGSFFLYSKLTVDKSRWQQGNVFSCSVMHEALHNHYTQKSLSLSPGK
light: NFMLTQPHSVSESPGKTVTISCTRSSGSIDSSYVQWYQQRPGSSPTTVIYEDDQRPSGVPDRFSGSIDSSSNSASLTISGLKTEDEADYYCQSYDFHHLVFGGGTKLTVLQPKAAPSVTLFPPSSEELQANKATLVCLISDFYPGAVTVAWKADSSPVKAGVETTTPSKQSNNKYAASSYLSLTPEQWKSHRSYSCQVTHEGSTVEKTVAPTECS
B13: C1GM-2 (hIgG2ΔA) (antibody)
heavy: EVQLVESGGGLVKPGGSLRLSCAASGFTFDDSVMHWVRQAPGKGLEWVSLVGWDGFFTYYADSVKGRFTISRDNAKNSLYLQMNSLRAEDTAVYYCARQGDYMGNNWGQGTLVTVSSASTKGPSVFPLAPCSRSTSESTAALGCLVKDYFPEPVTVSWNSGALTSGVHTFPAVLQSSGLYSLSSVVTVPSSNFGTQTYTCNVDHKPSNTKVDKTVAPPVAGPSVFLFPPKPKDTLMISRTPEVTCVVVDVSHEDPEVQFNWYVDGVEVHNAKTKPREEQFNSTFRVVSVLTVVHQDWLNGKEYKCKVSNKGLPSSIEKTISKTKGQPREPQVYTLPPSREEMTKNQVSLTCLVKGFYPSDIAVEWESNGQPENNYKTTPPMLDSDGSFFLYSKLTVDKSRWQQGNVFSCSVMHEALHNHYTQKSLSLSPGK
light: B12 light
notes: the footnote is printed with **)

molecular target: T1, human IL-7R on human peripheral blood …; assay: cell-based or functional assay

Row | IC50 (read off the curve) [µg/mL] | Binder
1 | ~0.1 | B1
2 | ~0.04 | B2

molecular target: T2, Human IL-7R-hFc antigen (R&D systems); assay: SPR (Biacore 2000/3000), IL-7R-hFc captured on anti-human Fc, antibody as analyte
Description: The affinities of antagonist IL-7R antibodies to human IL-7R were measured on a surface plasmon resonance Biacore™ 2000 or 3000 biosensor equipped with a research-grade CM5 sensor chip (Biacore™ AB, Uppsala, Sweden—now GE Healthcare). Goat polyclonal anti-human F(ab′)2 fragments (Fc specific) were amine-coupled at saturating levels onto all four flow cells using a standard N-hydroxysuccinimide/ethyldimethylaminopropyl carbodiimide (NHS/EDC) chemistry in HBS-P running buffer (from Biacore™). The buffer was switched to HBS-P containing 1 mg/mL BSA. Human IL-7R-hFc antigen (R&D systems, Minneapolis, USA) was diluted to about 30 μg/mL and captured for 3 min at 5 μL/min to give levels of about 500-1000 RU per flow cell, leaving one blank to serve as a reference channel. Fab, hIgG1, or hIgG2ΔA formats of the antibodies were injected in duplicates as a 5-membered 3-fold series starting at 2 μM and a 5-membered 4-fold series starting at 0.4 μM for 3 min at 20-50 μL/min. Dissociation was monitored for 5 min. The capture chip was regenerated after the last injection of each titration with two 30 sec pulses of 75 mM phosphoric acid or 10 mM Glycine-HCl pH 1.7. Buffer cycles provided blanks for double-referencing the binding response data, which were then fit globally to a simple reversible binding model using Biaevaluation software v.4.1 to deduce the kinetic association and dissociation rate constants, respectively kₐ and kd. Affinities were deduced from their ratio (KD=kd/kₐ).

Row | Kd [nM] | koff [s⁻¹] | kon [M⁻¹ s⁻¹] | Binder
3 | 225 | 0.00351 | 15600 | B3
4 | 0.06 | 0.000286 | 5.07e+06 | B4
5 | 0.218 | 0.000307 | 1.41e+06 | B5
6 | 0.195 | 0.000302 | 1.55e+06 | B6
7 | 204 | 0.0114 | 56000 | B7
8 | 0.06 | 8.08e-05 | 1.39e+06 | B8
9 | 0.04 | 0.000171 | 4.85e+06 | B9
10 | 3 | 0.000497 | 155000 | B10
11 | 12 | 0.000882 | 71700 | B11
12 | 0.286 | 0.000405 | 1.42e+06 | B12
13 | 0.27 | 0.000407 | 1.51e+06 | B13
